Reference: article PMC9977449, “Discovery of lipid-mediated protein–protein interactions in living cells using metabolic labeling with photoactivatable clickable probes†” (Chemical Science, 2023)

Assays:
[1] = target: T1, FSP1-TST, wild type, from cells under NMT inhibition (UniProt Q9BRQ8 1-373); assay: co-IP; as a2, wild-type FSP1-TST with NMT inhibition of the cells; details: partners not purified
T1 construct: FSP1 (ferroptosis suppressor protein 1); same construct as m3; not shown: Twin-Strep-tag, C-terminal, kept
T1 sequence (looked up): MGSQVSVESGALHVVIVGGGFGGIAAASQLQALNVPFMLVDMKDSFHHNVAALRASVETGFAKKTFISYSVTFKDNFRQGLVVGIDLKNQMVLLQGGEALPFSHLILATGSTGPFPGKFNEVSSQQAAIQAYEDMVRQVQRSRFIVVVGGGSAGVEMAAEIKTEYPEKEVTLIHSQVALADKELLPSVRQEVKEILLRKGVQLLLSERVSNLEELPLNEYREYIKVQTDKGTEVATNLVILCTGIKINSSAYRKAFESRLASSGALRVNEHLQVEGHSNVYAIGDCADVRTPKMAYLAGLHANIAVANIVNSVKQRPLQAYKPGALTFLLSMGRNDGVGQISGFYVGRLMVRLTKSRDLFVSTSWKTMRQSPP

[2] = target: T2, FSP1-TST, myristoylation-deficient G2A mutant (UniProt Q9BRQ8 1-373, G2A); assay: co-IP; TST-tagged protein (WT or G2A) transfected in HEK293 cells, captured on Strep-Tactin resin; blot with TRA2B or TOMM40 antibody, signal normalised to the bait's signal; details: partners not purified
T2 construct: FSP1 (ferroptosis suppressor protein 1) with G2A; also called FSP1 G2A mutant; source: HEK293, transfected, in lysate; not shown: Twin-Strep-tag, C-terminal, kept
T2 sequence (looked up): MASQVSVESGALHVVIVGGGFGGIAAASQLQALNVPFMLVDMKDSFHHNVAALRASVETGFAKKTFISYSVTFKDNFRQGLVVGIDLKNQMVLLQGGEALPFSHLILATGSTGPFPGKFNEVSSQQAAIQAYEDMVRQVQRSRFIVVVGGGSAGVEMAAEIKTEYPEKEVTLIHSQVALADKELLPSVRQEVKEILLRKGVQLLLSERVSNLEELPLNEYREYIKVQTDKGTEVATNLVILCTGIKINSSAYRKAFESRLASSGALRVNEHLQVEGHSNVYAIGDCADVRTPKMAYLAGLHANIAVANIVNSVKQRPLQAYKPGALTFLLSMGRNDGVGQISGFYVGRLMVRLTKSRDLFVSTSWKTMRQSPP

B1: TOMM40, mitochondrial protein that facilitates protein import into mitochondria (natural protein, human (endogenous in HEK293), UniProt O96008 1-361, looked up)
chain: MGNVLAASSPPAGPPPPPAPALVGLPPPPPSPPGFTLPPLGGSLGAGTSTSRSSERTPGAATASASGAAEDGACGCLPNPGTFEECHRKCKELFPIQMEGVKLTVNKGLSNHFQVNHTVALSTIGESNYHFGVTYVGTKQLSPTEAFPVLVGDMDNSGSLNAQVIHQLGPGLRSKMAIQTQQSKFVNWQVDGEYRGSDFTAAVTLGNPDVLVGSGILVAHYLQSITPCLALGGELVYHRRPGEEGTVMSLAGKYTLNNWLATVTLGQAGMHATYYHKASDQLQVGVEFEASTRMQDTSVSFGYQLDLPKANLLFKGSVDSNWIVGATLEKKLPPLPLTLALGAFLNHRKNKFQCGFGLTIG
modifications: myristoylated (the paper: 'is itself also myristoylated')
notes: TOMM40, endogenous in HEK293 cells, detected with a TOMM40 antibody; source: endogenous, HEK293 lysate
co-immunoprecipitated TOMM40, percent of WT [1]: 28 % of WT
co-immunoprecipitated TOMM40, percent of WT FSP1 [2]: 22 % of WT FSP1
